First the molecules themselves.
B1: 2K2A (parent)
chain: ELREAFRLYDKEGNGYISTDVMREILAELDETLSSEDLDAMIDEIDADGSGTVDFEEFMGVMT

Variants of B1 are the subject of the data set. Description: folding stability dG (cDNA display proteolysis); higher = more stable. As to conditions: PBS, room temperature.
For ELREAFRLYDKEGNGYISTDVMREILAELDETLSSEDLDAMIDEIDADGSGTVDFEEFMGKMT [V61K], the “folding stability dG” value was found to be 5.54 kJ/mol.
For the variant ELREAFRLYDKEGNGYISTDVMREILAELDETLSSEDLDAMIDEIDADGSGTVDFEEFMGPMT [V61P], the “folding stability dG” value is 1.11 kJ/mol.
With ELREAFRLYDKEGNGYISTDVMREILAELDETLSSEDLDAMIDEIDADGSGTVDFEEFMGNMT [V61N] the figure was 2.37 kJ/mol.
For ELREAFRLYDKEGNGYISTDVMREILAELDETLSSEDLDAMIDEIDADGSGTVDFEEFMGIMT [V61I] the value was 8.88 kJ/mol.
With ELREAFRLYDKEGNGYISTDVMREILAELDETLSSEDLDAMIDEIDADGSGTVDFEEFMGHMT [V61H] the figure was 6.97 kJ/mol.
With ELREAFRLYDKEGNGYISTDVMREILAELDETLSSEDLDAMIDEIDADGSGTVDFEEFMGSMT [V61S], the “folding stability dG” value is 5.27 kJ/mol.
With ELREAFRLYDKEGNGYISTDVMREILAELDETLSSEDLDAMIDEIDADGSGTVDFEEFMGAMT [V61A], the “folding stability dG” value worked out at 9.2 kJ/mol.
For ELREAFRLYDKEGNGYISTDVMREILAELDETLSSEDLDAMIDEIDADGSGTVDFEEFMGEMT [V61E] the value was 0.866 kJ/mol; for ELREAFRLYDKEGNGYISTDVMREILAELDETLSSEDLDAMIDEIDADGSGTVDFEEFMGCMT [V61C], 7.8 kJ/mol; for ELREAFRLYDKEGNGYISTDVMREILAELDETLSSEDLDAMIDEIDADGSGTVDFEEFMGQMT [V61Q], 3.77 kJ/mol.
With ELREAFRLYDKEGNGYISTDVMREILAELDETLSSEDLDAMIDEIDADGSGTVDFEEFMGLMT [V61L], the “folding stability dG” value was 8.64 kJ/mol.
For ELREAFRLYDKEGNGYISTDVMREILAELDETLSSEDLDAMIDEIDADGSGTVDFEEFMGRMT [V61R], the “folding stability dG” value was determined as 4.84 kJ/mol.
For ELREAFRLYDKEGNGYISTDVMREILAELDETLSSEDLDAMIDEIDADGSGTVDFEEFMGDMT [V61D] the value was -3.1 kJ/mol; for ELREAFRLYDKEGNGYISTDVMREILAELDETLSSEDLDAMIDEIDADGSGTVDFEEFMGFMT [V61F], 11.5 kJ/mol.
With ELREAFRLYDKEGNGYISTDVMREILAELDETLSSEDLDAMIDEIDADGSGTVDFEEFMGMMT [V61M] the figure was 7.64 kJ/mol.
With ELREAFRLYDKEGNGYISTDVMREILAELDETLSSEDLDAMIDEIDADGSGTVDFEEFMGTMT [V61T] the figure was 5.06 kJ/mol; with ELREAFRLYDKEGNGYISTDVMREILAELDETLSSEDLDAMIDEIDADGSGTVDFEEFMGGMT [V61G], 6.23 kJ/mol.
As to ELREAFRLYDKEGNGYISTDVMREILAELDETLSSEDLDAMIDEIDADGSGTVDFEEFMNVMT [G60N], the “folding stability dG” value amounted to 9 kJ/mol.
With ELREAFRLYDKEGNGYISTDVMREILAELDETLSSEDLDAMIDEIDADGSGTVDFEEFMRVMT [G60R] the figure was 11.8 kJ/mol.
With ELREAFRLYDKEGNGYISTDVMREILAELDETLSSEDLDAMIDEIDADGSGTVDFEEFMYVMT [G60Y] the figure was 10.7 kJ/mol; with ELREAFRLYDKEGNGYISTDVMREILAELDETLSSEDLDAMIDEIDADGSGTVDFEEFMAVMT [G60A], 10.6 kJ/mol; with ELREAFRLYDKEGNGYISTDVMREILAELDETLSSEDLDAMIDEIDADGSGTVDFEEFMHVMT [G60H], 10.4 kJ/mol.
With ELREAFRLYDKEGNGYISTDVMREILAELDETLSSEDLDAMIDEIDADGSGTVDFEEFMKVMT [G60K] the figure was 11.3 kJ/mol.
Turning to ELREAFRLYDKEGNGYISTDVMREILAELDETLSSEDLDAMIDEIDADGSGTVDFEEFMPVMT [G60P], the “folding stability dG” value was 2.98 kJ/mol.
ELREAFRLYDKEGNGYISTDVMREILAELDETLSSEDLDAMIDEIDADGSGTVDFEEFMIVMT [G60I]: the “folding stability dG” value was determined as 10 kJ/mol.
On to ELREAFRLYDKEGNGYISTDVMREILAELDETLSSEDLDAMIDEIDADGSGTVDFEEFMEVMT [G60E], for which the “folding stability dG” value amounted to 7.74 kJ/mol.
With ELREAFRLYDKEGNGYISTDVMREILAELDETLSSEDLDAMIDEIDADGSGTVDFEEFMQVMT [G60Q] the figure was 9.71 kJ/mol; with ELREAFRLYDKEGNGYISTDVMREILAELDETLSSEDLDAMIDEIDADGSGTVDFEEFMSVMT [G60S], 9.59 kJ/mol; with ELREAFRLYDKEGNGYISTDVMREILAELDETLSSEDLDAMIDEIDADGSGTVDFEEFMLVMT [G60L], 10.3 kJ/mol.
For ELREAFRLYDKEGNGYISTDVMREILAELDETLSSEDLDAMIDEIDADGSGTVDFEEFMWVMT [G60W] the value was 11.7 kJ/mol; for ELREAFRLYDKEGNGYISTDVMREILAELDETLSSEDLDAMIDEIDADGSGTVDFEEFMTVMT [G60T], 9.91 kJ/mol; for ELREAFRLYDKEGNGYISTDVMREILAELDETLSSEDLDAMIDEIDADGSGTVDFEEFMFVMT [G60F], 10.4 kJ/mol.
With ELREAFRLYDKEGNGYISTDVMREILAELDETLSSEDLDAMIDEIDADGSGTVDFEEFMMVMT [G60M] the figure was 10.5 kJ/mol; with ELREAFRLYDKEGNGYISTDVMREILAELDETLSSEDLDAMIDEIDADGSGTVDFEEFMVVMT [G60V], 8.92 kJ/mol.
Turning to ELREAFRLYDKEGNGYISTDVMREILAELDETLSSEDLDAMIDEIDADGSGTVDFEEFMDVMT [G60D], the “folding stability dG” value came to 7.34 kJ/mol.
As for ELREAFRLYDKEGNGYISTDVMREILAELDETLSSEDLDAMIDEIDADGSGTVDFEEFMCVMT [G60C], the “folding stability dG” value is 9.4 kJ/mol.
On to ELREAFRLYDKEGNGYISTDVMREILAELDETLSSEDLDAMIDEIDADGSGTVDFEEFVGVMT [M59V], for which the “folding stability dG” value came to 9.12 kJ/mol.
For ELREAFRLYDKEGNGYISTDVMREILAELDETLSSEDLDAMIDEIDADGSGTVDFEEFWGVMT [M59W] the value was 5.85 kJ/mol.
For ELREAFRLYDKEGNGYISTDVMREILAELDETLSSEDLDAMIDEIDADGSGTVDFEEFRGVMT [M59R] the value was 8.22 kJ/mol; for ELREAFRLYDKEGNGYISTDVMREILAELDETLSSEDLDAMIDEIDADGSGTVDFEEFSGVMT [M59S], 7.4 kJ/mol; for ELREAFRLYDKEGNGYISTDVMREILAELDETLSSEDLDAMIDEIDADGSGTVDFEEFTGVMT [M59T], 6.25 kJ/mol.
As to ELREAFRLYDKEGNGYISTDVMREILAELDETLSSEDLDAMIDEIDADGSGTVDFEEFYGVMT [M59Y], the “folding stability dG” value amounted to 8.46 kJ/mol.
With ELREAFRLYDKEGNGYISTDVMREILAELDETLSSEDLDAMIDEIDADGSGTVDFEEFQGVMT [M59Q] the figure was 6.92 kJ/mol.

These data come from the MegaScale stability set (Tsuboyama et al. 2023).
